The target of the data set is Mig1 (Xanthophyllomyces dendrorhous, UniProt A0A1C9UL02 1-863). Nature of the data set: EMSA; poly(dI-dC); 20 mM HEPES pH 7.9, 50 mM KCl, 1 mM DTT, 0.1 mM EDTA, 5% glycerol (+2.5%), 200 ug/ml BSA, 50 ng/ul poly(dI-dC), 0.05% NP-40, 20 fmol DNA, 10 ug Mig1 in 20 ul, room temperature 20 min. The settings on record: protein: recombinant; (pET-TEV), removed by TEV protease; label: 5' biotin; blunt.
Sequence of Mig1 (A0A1C9UL02 entry or part of it): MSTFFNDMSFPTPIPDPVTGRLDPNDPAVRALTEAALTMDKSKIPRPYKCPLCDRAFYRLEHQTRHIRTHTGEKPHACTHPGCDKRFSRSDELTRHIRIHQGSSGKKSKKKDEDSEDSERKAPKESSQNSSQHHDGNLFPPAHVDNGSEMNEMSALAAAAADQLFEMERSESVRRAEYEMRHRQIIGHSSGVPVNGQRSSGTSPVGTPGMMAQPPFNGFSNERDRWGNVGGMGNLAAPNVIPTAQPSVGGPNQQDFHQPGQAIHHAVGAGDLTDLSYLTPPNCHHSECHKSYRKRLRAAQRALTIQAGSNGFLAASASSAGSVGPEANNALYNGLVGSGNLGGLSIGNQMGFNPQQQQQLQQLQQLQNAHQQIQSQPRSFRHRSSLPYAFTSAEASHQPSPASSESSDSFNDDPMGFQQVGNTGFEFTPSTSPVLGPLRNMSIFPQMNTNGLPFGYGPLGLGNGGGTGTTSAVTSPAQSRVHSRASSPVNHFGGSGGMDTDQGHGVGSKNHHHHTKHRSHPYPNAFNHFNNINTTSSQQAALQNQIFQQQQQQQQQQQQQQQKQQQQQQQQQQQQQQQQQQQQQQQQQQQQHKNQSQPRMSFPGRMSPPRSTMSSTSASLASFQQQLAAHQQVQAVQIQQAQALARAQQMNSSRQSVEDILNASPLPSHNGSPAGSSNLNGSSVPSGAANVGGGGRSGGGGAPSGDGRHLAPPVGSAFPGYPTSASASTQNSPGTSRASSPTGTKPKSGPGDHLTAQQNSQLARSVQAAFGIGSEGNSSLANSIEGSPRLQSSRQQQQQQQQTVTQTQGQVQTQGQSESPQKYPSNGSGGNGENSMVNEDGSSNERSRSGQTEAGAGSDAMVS

B1: grg2 box A (-348) 54 bp (dsDNA)
DNA 1: GAGGTATATGCGTTCCGCGAACTGCGGAGATGTGACGTCACATCTCGTCACAGC
DNA 2: GCTGTGACGAGATGTGACGTCACATCTCCGCAGTTCGCGGAACGCATATACCTC
Take B1: the binding result is “binds”.
